Experimental findings from patent US8257714B2, “Compositions and methods for immunotherapy of cancer and infectious diseases” (priority 2003, dated 2012) are described below.

One data set has as its system S-180 tumor. The data set can be described thus: Murine S-180 tumor model. Type of data set: in vivo, BALB/c mice. Particulars: GM-CSF alone, 20 ng/mouse/day. As to the method: In a preferred embodiment, The S-180 cell line (ATCC CCL 8, batch F4805) is chosen as the tumor model because the same line is capable of growing both in animals and in culture (in both serum-containing and serum-free conditions). Tumors are established in mice (BALB/c) by injection of cell suspensions obtained from tissue culture. Approximately […] to 3×10^6 cells are injected intra-peritoneally per mouse. The tumor developed as multiple solid nodules at multiple sites within the peritoneal cavity and cause death in most of the animals within 10 to 15 days. In addition to monitoring animal survival, their condition is qualitatively assessed as tumor growth progressed and used to generate a tumor index as described in the following paragraph.
To establish an estimate of drug activity in tumor model experiments, an index can be developed that combines observational examination of the animals as well as their survival status. […]
The S-180 cell line (ATCC CCL 8, batch F4805) was chosen as the tumor model because the same line was capable of growing both in animals and in culture (in both serum-containing and serum-free conditions). […] In addition to monitoring animal survival, their condition was qualitatively assessed as tumor growth progressed and used to generate a tumor index. […]

The test system of data set [1] is influenza virus A/NWS/33 (HINI). Description: Influenza infection in mice. Type of data set: in vivo, BALB/c mice. As to conditions: for Mean Day to Death ± SD: mice dying before day 21; for decline in arterial oxygen saturation: days 3-11. The text has this:
Specific pathogen-free female BALB/c mice were infected intranasally with an LD90 dose of influenza virus A/NWS/33 (HINI). […] Placebo treated mice received bovine serum albumin in phosphate-buffered saline. Mice were observed daily for death.

The nature of data set [2]: Experimental autoimmune encephalomyelitis (EAE) model. Type of data set: in vivo, SJL mice. As for the experimental part: Treatments were given daily for 5 days. Linomide is a drug that is known to inhibit EAE and is used as a positive control. […] Severity of EAE is measured by means of the EAE score which starts at […] and increases to a score of 5 when death occurs. For ethical reasons mice are sacrificed when a score of 4 is reached.

A short description of data set [3]: Stability of E1 in human serum albumin. Type of data set: physicochemical. Particulars: for loss of activity: in the presence of HSA. The text has this: Higher temperature studies also indicate remarkable stability.
Data set [4] deals with Mycobacterium tuberculosis Erdman strain. Description: Tuberculosis in mice. As to conditions: 0.1, 1.0 or 10.0 ng i.p. days 1-5; day 0, 21 and 42. Type of data set: in vivo. As for the experimental part: Groups of mice were exposed to Mycobacterium tuberculosis Erdman strain (M.tb) by inhalation on day 0. […] A control group of mice received vehicle only. On day 0, 21 and 42 the colony forming units (cfu) of M.tb in the lung were determined.

Where [5] appears, read: 100 ng/day i.p., schedule 0, 3, 6.
[6] abbreviates: 100 ng/day i.p., schedule −2, 0, 3, 6.
[7] abbreviates: 1,000 ng/day i.p., schedule 0, 3, 6.

Marks after values point to notes of the source that are not given here.

With “GM-CSF: granulocyte macrophage-colony stimulating factor”, the “survivorship versus sham injections” value with S-180 tumor is on record as “followed similar survivorship curves”.

B1: ARP E1: recombinant E. tenella ARP from E. coli clone E1 (ATCC PTA-6120), SEQ ID NO:28 (protein, listed as Eimeria tenella)
chain: MGEEADTQAWDTSVREWLVDTGRVFAGGVASIADGCRLFGAAVEGEGNAWEELVKTNYQIEVPQEDGTSISVDCDEAETLRAVVDGRAPNGVYIGGTKYKLAEVKRDFTFNDQNYDVAILGKNKGGGFLIKTPNENVVIALYDEEKEQNKADALTTALNFAEYLYQGGF
Consider B1, for which the Survive/Total was 2/10 in data set [1] (setting [5]); 0/10 in data set [1] (setting [6]); 3/10 in data set [1] (setting [7]); 5/10* in data set [1] (10,000 ng/day i.p., schedule 0, 3, 6, P < 0.05). Besides, the “Mean Day to Death ± SD” value was 12.1 ± 1.6 days in data set [1] (setting [5]); 12.3 ± 1.2 days in data set [1] (setting [6]); 12.7 ± 2.7 days in data set [1] (setting [7]); 12.0 ± 1.4 days in data set [1] (10,000 ng/day i.p., schedule 0, 3, 6). The “decline in arterial oxygen saturation” value in data set [1] (1,000 ng) and in data set [1] (10,000 ng) was “statistically significant reduction” in each case. Besides, the “Day 15 EAE Score ± SD” value in data set [2] (0.1 μg i.p. daily for 5 days from day 10) came to 2.7 ± 1.3; in data set [2] (1.0 μg i.p. daily for 5 days from day 10), 1.5 ± 1.6; in data set [2] (10.0 μg i.p. daily for 5 days from day 10), 1.1 ± 1.5. Further, the loss in activity result in data set [3] (1 μg/mL, HSA 1, 5 or 10% w/v, 4° C., 4, 11, 25, 39 and 54 days, preliminary) was “no loss in activity”. Moreover, in data set [3] (1 μg/ml with 3% HSA, 4° C.), the “storage time without loss of activity (DC assay)” value is reported as “at least 55 weeks”. The loss of activity result in data set [3] (2 hours 70° C.), in data set [3] (6 hours at 55° C.) and in data set [3] (41 days at 37° C.) was “No loss of activity” in each case. Further, the “cfu of M.tb in the lung versus control group” value in data set [4] is on record as “no statistically significant difference”.
